Measured values reported in paper PMC3761233.

Legend:
[1] = biological target: endogenous porcine aminopeptidase N on ST cells and IPI-21 cells (porcine (endogenous in ST and IPI-21 cells)) (UniProt P15145); test: flow cytometry on cells
[2] = biological target: porcine aminopeptidase N, expressed from a plasmid on BHK-21 or HEK 293T cells (porcine) (UniProt P15145); test: flow cytometry on cells

soluble TGEV spike protein (S1 subunit fused to the human IgG Fc portion) (from UniProt P07946 29-1447) (Fc fusion)
percent of cells bound (ST cells, after neuraminidase) (% of the cells) [1]: > 60 | percent of cells bound (ST cells, without neuraminidase) (% of the cells) [1]: 50 | percent of cells bound (BHK-21 cells expressing APN, after neuraminidase) (% of the cells) [2]: > 60
